{"source": "paper PMC6288126", "about": "“Structural insights into DDA1 function as a core component of the CRL4-DDB1 ubiquitin ligase” (Cell Discovery, 2018)", "binders": {"B1": {"name": "Affinity-tagged DDA1-NT (1-28 aa) (bio-layer interferometry) (domain or fragment)", "chain": "not shown", "notes": "DDA1, N-terminal fragment DDA1-NT (1-28 aa); it may be the GST fusion of m3; source: purified recombinant protein"}}, "target": "T1, DDB1 (DNA damage-binding protein 1) (human, UniProt Q16531 1-1140)", "T1 construct": "triple beta-propeller (BPA, BPB, BPC) and CTD; also called free DDB1; purified DDB1; source: purified recombinant protein", "T1 sequence (Q16531 whole entry, the tested form may be a part)": "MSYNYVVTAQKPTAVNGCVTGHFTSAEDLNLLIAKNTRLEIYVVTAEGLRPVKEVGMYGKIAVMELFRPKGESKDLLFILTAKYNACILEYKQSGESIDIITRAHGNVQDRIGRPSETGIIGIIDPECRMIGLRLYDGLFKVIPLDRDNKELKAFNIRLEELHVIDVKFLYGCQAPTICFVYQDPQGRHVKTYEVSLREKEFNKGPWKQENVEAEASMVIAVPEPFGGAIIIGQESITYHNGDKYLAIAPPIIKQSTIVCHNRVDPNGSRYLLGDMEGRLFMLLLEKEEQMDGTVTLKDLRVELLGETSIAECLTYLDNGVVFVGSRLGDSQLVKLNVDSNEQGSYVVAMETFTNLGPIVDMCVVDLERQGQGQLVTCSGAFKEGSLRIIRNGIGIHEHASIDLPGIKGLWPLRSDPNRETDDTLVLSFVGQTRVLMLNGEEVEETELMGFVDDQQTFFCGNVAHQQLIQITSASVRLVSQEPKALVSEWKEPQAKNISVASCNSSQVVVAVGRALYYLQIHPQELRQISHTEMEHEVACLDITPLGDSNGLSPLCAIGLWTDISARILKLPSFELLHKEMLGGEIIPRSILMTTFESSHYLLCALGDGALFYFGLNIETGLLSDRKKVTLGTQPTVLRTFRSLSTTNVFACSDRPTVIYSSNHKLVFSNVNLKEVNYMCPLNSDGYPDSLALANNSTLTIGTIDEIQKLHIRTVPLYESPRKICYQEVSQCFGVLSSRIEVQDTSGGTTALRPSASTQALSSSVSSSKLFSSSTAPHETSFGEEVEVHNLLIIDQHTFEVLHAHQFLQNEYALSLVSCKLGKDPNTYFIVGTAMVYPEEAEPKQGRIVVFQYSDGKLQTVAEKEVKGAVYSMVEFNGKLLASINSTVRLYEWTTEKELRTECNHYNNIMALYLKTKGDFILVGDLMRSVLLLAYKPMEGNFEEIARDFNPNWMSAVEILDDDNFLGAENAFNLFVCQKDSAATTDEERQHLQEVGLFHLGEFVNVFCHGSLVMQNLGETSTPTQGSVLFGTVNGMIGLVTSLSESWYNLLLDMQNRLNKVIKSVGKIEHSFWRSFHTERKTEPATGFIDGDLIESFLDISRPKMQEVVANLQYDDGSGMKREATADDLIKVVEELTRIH", "test": "BLI; affinity-tagged DDA1 FL and fragments immobilised on the probe as ligand, free DDB1 as analyte at different concentrations; Kd from the dose response curve of maximal binding signals", "conditions": "both partners purified", "data": [{"binder": "B1", "values": [{"measurement": "Kd", "result": "~45", "unit": "nM"}]}]}
